Publication PMC11588662

Columns and labels:
[1] = target: CD33 on human AML cells (Kasumi-1, HL-60, MOLM14) (human (endogenous in Kasumi-1, HL-60, MOLM14)) (UniProt P20138); test: flow cytometry on cells; 50 ug CD117 or CD33 Db-FM injected i.v. into NSG mice engrafted with MOLM14-CD117^highGFP^+Luc^+ cells; femora collected after 1 and 6 h; MFI (APC anti-FITC) interpolated on an ex vivo titration of Db-FM on cells of a control mouse
[2] = target: CD33 on human AML cells (Kasumi-1, HL-60, MOLM14) (human (endogenous in Kasumi-1, HL-60, MOLM14)) (UniProt P20138); test: flow cytometry on cells; MOLM14 GFP^-CD117^midCD33^+ cells stained with 10 nM of either Db-FM or both (10 nM each); fluorescence (MFI)

Sequence of CD33 on human AML cells (Kasumi-1, HL-60, MOLM14) (human (endogenous in Kasumi-1, HL-60, MOLM14)) (P20138 18-364): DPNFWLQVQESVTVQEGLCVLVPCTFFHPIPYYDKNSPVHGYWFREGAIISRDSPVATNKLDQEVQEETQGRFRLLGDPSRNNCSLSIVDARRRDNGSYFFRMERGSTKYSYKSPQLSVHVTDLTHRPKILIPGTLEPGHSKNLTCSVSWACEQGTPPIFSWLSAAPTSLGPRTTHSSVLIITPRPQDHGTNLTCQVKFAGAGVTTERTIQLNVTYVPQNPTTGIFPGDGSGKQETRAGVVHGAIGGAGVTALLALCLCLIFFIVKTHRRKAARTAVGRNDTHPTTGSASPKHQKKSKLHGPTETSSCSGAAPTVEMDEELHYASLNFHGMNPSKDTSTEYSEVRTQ

- interpolated on-tumor Db-FM concentration 1 h after injection [1]: 0.99 nM
- interpolated on-tumor Db-FM concentration 6 h after injection [1]: 0.22 nM
- MFI [2]: 942
Substance: CD33 Db-FM (fluorescein-maleimide-labelled anti-CD33 diabody, clone SGN-33)
